± gives the standard deviation of the averaged measurements.
B1: library; numbered along this chain (parent)
chain: MNIQIGELAKRTACPVVTIRFYEQEGLLPPPGRSRGNFRLYGEEHVERLQFIRHCRSLDMPLSDVRTLLSYRKRPDQDCGEVNMLLDEHIRQVESRIGALLELKHHLVELREACSGARPAQSCGILQGLSDCVCDTRGTTAHPSD

Tests used:
[1] = variants of: B1; experiment: sfGFP reporter fluorescence (15 h) (µM FITC); higher = higher leak; conditions: library round: Round 1; ligand: none
Protocol: (§1)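 Cell-free biosensing: 1 µL Echo-assembled CFE reactions with linear PbrR variant templates (5 nM) and pPbrR-sfGFP reporter, with 1 µM Pb, 30 µM Zn or no ligand; endpoint sfGFP fluorescence after 15 h at 30 °C calibrated as µM FITC. Round 1 ML-predicted PbrR mutants; 3 biological replicates.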

[2] = variants of: B1; experiment: sfGFP reporter fluorescence (15 h) (µM FITC); higher = stronger transcriptional activation; conditions: library round: Round 1
Protocol: as §1

Row | Variant | sfGFP reporter fluorescence [1] | sfGFP reporter fluorescence ([2]; ligand: 1 µM Pb) | sfGFP reporter fluorescence ([2]; ligand: 30 µM Zn)
1 | E94C K104V | 0.0704 ± 0.0013 | 0.072 ± 0.0039 | 0.184 ± 0.002
2 | S115G D131C | 0.0572 ± 0.0013 | 0.0619 ± 0.0016 | 0.0992 ± 0.0037
3 | D131A D135E | 0.06499 ± 0.00042 | 0.0805 ± 0.0086 | 0.571 ± 0.06
4 | D131A D135P | 0.0689 ± 0.0013 | 0.119 ± 0.0078 | 0.654 ± 0.017
5 | D131A D135A | 0.077 ± 0.0023 | 0.184 ± 0.0043 | 2.2 ± 0.17
6 | D131A D135S | 0.0699 ± 0.0026 | 0.0955 ± 0.0012 | 0.604 ± 0.0087
7 | N83T G128I | 0.059 ± 0.00064 | 0.133 ± 0.011 | 0.387 ± 0.038
8 | L107N G128M | 0.0744 ± 0.0042 | 0.225 ± 0.02 | 0.917 ± 0.088
9 | N83T L107C C114R G128M | 0.063 ± 0.0015 | 0.0605 ± 0.0029 | 0.06108 ± 0.00021
10 | R96A K104V | 0.068 ± 0.0015 | 0.0754 ± 0.0017 | 0.118 ± 0.0059
11 | I97S G128I | 0.0694 ± 0.0013 | 0.136 ± 0.023 | 0.89 ± 0.023
12 | L107C G124A G128M | 0.371 ± 0.0094 | 1.13 ± 0.051 | 2.08 ± 0.19
13 | L126I D131C | 0.0635 ± 0.0019 | 0.0635 ± 0.0022 | 0.0699 ± 0.0022
14 | N83T P143R | 0.0618 ± 0.0013 | 0.0709 ± 0.0047 | 0.145 ± 0.0075
15 | N83T P143W | 0.0657 ± 0.0018 | 0.07806 ± 0.00064 | 0.131 ± 0.0017
16 | L107C G128I P143A | 0.52 ± 0.062 | 1.09 ± 0.32 | 2.25 ± 0.092
17 | N83T R96A | 0.0645 ± 0.00037 | 0.0756 ± 0.0031 | 0.0938 ± 0.0026
18 | V108I D131C | 0.0613 ± 0.0026 | 0.0713 ± 0.0046 | 0.134 ± 0.0021
19 | I90L D135A | 0.0614 ± 0.0011 | 0.0634 ± 0.0038 | 0.207 ± 0.0065
20 | E109I R111L | 0.0627 ± 0.0016 | 0.0717 ± 0.003 | 0.217 ± 0.0064
21 | L107C G128I D135S | 2.64 ± 0.069 | 3.9 ± 0.36 | 4.376 ± 0.041
22 | Q127A D135P | 0.0621 ± 0.0012 | 0.0781 ± 0.0053 | 0.244 ± 0.021

Row | Variant | sfGFP reporter fluorescence [1] | sfGFP reporter fluorescence ([2]; ligand: 1 µM Pb) | sfGFP reporter fluorescence ([2]; ligand: 30 µM Zn)
23 | N83T I97S K104G | 0.0612 ± 0.0026 | 0.076 ± 0.0097 | 0.102 ± 0.0094
24 | L107E G128I | 0.0629 ± 0.0025 | 0.0633 ± 0.0023 | 0.0621 ± 0.0022
25 | I90L D131C | 0.0627 ± 0.00064 | 0.0647 ± 0.0038 | 0.122 ± 0.0066
26 | L107I C114R | 0.059 ± 0.0019 | 0.0512 ± 0.0044 | 0.0514 ± 0.00092
27 | L85Y K104V | 0.0606 ± 0.0011 | 0.0629 ± 0.0018 | 0.223 ± 0.011
28 | D131A D135P P143W | 0.0718 ± 0.0029 | 0.122 ± 0.0042 | 0.497 ± 0.081
29 | D131A D135A P143A | 0.0687 ± 0.0035 | 0.0917 ± 0.0098 | 0.487 ± 0.043
30 | N83T D135V | 0.0628 ± 0.0024 | 0.0727 ± 0.0031 | 0.184 ± 0.011
31 | N83T D135P | 0.0602 ± 0.0037 | 0.0771 ± 0.00092 | 0.106 ± 0.0033
32 | N83T D135F | 0.0665 ± 0.00076 | 0.0911 ± 0.014 | 0.435 ± 0.062
33 | N83T D135A | 0.06316 ± 0.00056 | 0.0768 ± 0.0015 | 0.152 ± 0.0032
34 | N83T K104V | 0.0623 ± 0.0026 | 0.113 ± 0.0044 | 0.249 ± 0.025
35 | N83Y R111D | 0.06194 ± 0.00037 | 0.0568 ± 0.0025 | 0.0571 ± 0.0031
36 | N83Y R111L | 0.06133 ± 0.00056 | 0.0694 ± 0.0053 | 0.0698 ± 0.0019
37 | N83Y R111A | 0.064 ± 0.00092 | 0.0721 ± 0.0067 | 0.0742 ± 0.00085
38 | K104V L107G G128M | 0.0645 ± 0.0022 | 0.0955 ± 0.013 | 0.29 ± 0.028
39 | R111A D131N | 0.066 ± 0.0013 | 0.117 ± 0.018 | 0.829 ± 0.15
40 | D131A C134V | 0.0781 ± 0.0011 | 0.12 ± 0.0056 | 1.24 ± 0.15
41 | E94D K104V | 0.0655 ± 0.0018 | 0.101 ± 0.047 | 0.352 ± 0.039
42 | L107C E109Q G128I | 0.54 ± 0.0092 | 1.09 ± 0.29 | 2.1 ± 0.28
43 | D131C D135A | 0.0605 ± 0.0013 | 0.0742 ± 0.0019 | 0.221 ± 0.02
44 | H105A I125A | 0.0647 ± 0.0012 | 0.0639 ± 0.0042 | 0.0656 ± 0.0013

Row | Variant | sfGFP reporter fluorescence [1] | sfGFP reporter fluorescence ([2]; ligand: 1 µM Pb) | sfGFP reporter fluorescence ([2]; ligand: 30 µM Zn)
45 | I97A K104V | 0.0886 ± 0.0059 | 0.303 ± 0.071 | 1.11 ± 0.076
46 | E109A R111L | 0.06463 ± 0.00021 | 0.0688 ± 0.0022 | 0.1654 ± 0.00092
47 | E109L D135P | 0.0655 ± 0.0031 | 0.102 ± 0.0041 | 0.497 ± 0.027
48 | E109L D135R | 0.0677 ± 0.0015 | 0.0959 ± 0.0042 | 0.406 ± 0.061
49 | L110I R111A | 0.0628 ± 0.00092 | 0.0635 ± 0.0042 | 0.415 ± 0.045
50 | G128H P143A | 0.061 ± 0.0027 | 0.0728 ± 0.0023 | 0.121 ± 0.0099
51 | G128H P143W | 0.0661 ± 0.0013 | 0.086 ± 0.0043 | 0.159 ± 0.012
52 | D87S | 0.0624 ± 0.0015 | 0.0699 ± 0.0015 | 0.162 ± 0.017
53 | L100V G128I | 0.0908 ± 0.0036 | 0.322 ± 0.035 | 1.24 ± 0.03
54 | K104R D135A | 0.0652 ± 0.0026 | 0.0866 ± 0.004 | 0.368 ± 0.043
55 | K104V G128M D135A | 0.103 ± 0.0031 | 0.291 ± 0.048 | 1.8 ± 0.11
56 | E109H D135A | 0.0629 ± 0.00092 | 0.0832 ± 0.011 | 0.254 ± 0.02
57 | L107C G128I D135A P143K | 0.787 ± 0.091 | 1.52 ± 0.079 | 2.47 ± 0.14
58 | Q127S | 0.0614 ± 0.00076 | 0.0649 ± 0.0047 | 0.118 ± 0.0086
59 | M84A D131H | 0.0584 ± 0.0011 | 0.0712 ± 0.002 | 0.463 ± 0.061
60 | K104V V108K | 0.109 ± 0.0044 | 0.316 ± 0.063 | 1.44 ± 0.15
61 | K104V V108R | 0.109 ± 0.0031 | 0.386 ± 0.041 | 1.52 ± 0.1
62 | N83T E94R | 0.0643 ± 0.0013 | 0.0792 ± 0.002 | 0.128 ± 0.0019
63 | L110I D135A | 0.0608 ± 0.00097 | 0.0588 ± 0.0053 | 1.94 ± 0.1
64 | N83T E112A | 0.0608 ± 0.0013 | 0.0855 ± 0.0018 | 0.194 ± 0.022
65 | N83T E112M | 0.06267 ± 0.00037 | 0.0849 ± 0.0046 | 0.162 ± 0.0094
66 | N83T E112H | 0.0643 ± 0.0027 | 0.0795 ± 0.0037 | 0.112 ± 0.0026

Row | Variant | sfGFP reporter fluorescence [1] | sfGFP reporter fluorescence ([2]; ligand: 1 µM Pb) | sfGFP reporter fluorescence ([2]; ligand: 30 µM Zn)
67 | N83T E112L | 0.0619 ± 0.0034 | 0.0766 ± 0.0039 | 0.125 ± 0.0069
68 | N83T E112F | 0.0601 ± 0.0026 | 0.0667 ± 0.0032 | 0.0853 ± 0.0022
69 | L107C G128I D131C | 0.657 ± 0.018 | 1.26 ± 0.22 | 1.77 ± 0.23
70 | L85I P143M | 0.058 ± 0.0019 | 0.0691 ± 0.0018 | 0.401 ± 0.029
71 | R111V P143T | 0.0627 ± 0.002 | 0.0715 ± 0.0029 | 0.25 ± 0.011
72 | N83Y K104V | 0.0651 ± 0.0031 | 0.119 ± 0.024 | 0.0894 ± 0.0065
73 | G128A L129M | 0.0617 ± 0.0017 | 0.0701 ± 0.0044 | 0.257 ± 0.034
74 | N83W P143A | 0.0616 ± 0.0013 | 0.0688 ± 0.0011 | 0.0621 ± 0.0015
75 | N83T K104V L107I | 0.0623 ± 0.0016 | 0.0753 ± 0.0068 | 0.112 ± 0.0052
76 | G128L C134E | 0.0749 ± 0.0015 | 0.135 ± 0.0039 | 1.36 ± 0.11
77 | G128S D135A | 0.0652 ± 0.0016 | 0.0925 ± 0.0068 | 0.604 ± 0.015
78 | N83T D131S D135A | 0.0613 ± 0.0024 | 0.0871 ± 0.0043 | 0.193 ± 0.0075
79 | N83T D131S D135R | 0.064 ± 0.0013 | 0.0955 ± 0.0087 | 0.21 ± 0.0094
80 | L129M P143T | 0.0636 ± 0.0011 | 0.0636 ± 0.0025 | 0.07306 ± 0.00056
81 | L100I | 0.0611 ± 0.0014 | 0.0649 ± 0.0013 | 0.216 ± 0.019
82 | I125L D131A D135A | 0.065 ± 0.0029 | 0.0661 ± 0.0051 | 0.0699 ± 0.0045
83 | R111F E112A | 0.05962 ± 0.00021 | 0.0657 ± 0.00092 | 0.22 ± 0.021
84 | K104R C134I | 0.0715 ± 0.00073 | 0.152 ± 0.007 | 1.14 ± 0.072
85 | N83T D135V P143A | 0.0633 ± 0.0021 | 0.0745 ± 0.0035 | 0.189 ± 0.0083
86 | E94F K104V G128H | 0.0634 ± 0.002 | 0.0647 ± 0.0031 | 0.0833 ± 0.0084
87 | D87E D131C | 0.0622 ± 0.0025 | 0.0742 ± 0.0072 | 0.134 ± 0.013
88 | E112I D135A | 0.063 ± 0.0023 | 0.06438 ± 0.00042 | 0.176 ± 0.0035

From the supplement of paper PMC12783771
